Laboratory results reported in US20160333101A1 (GENOR BIOPHARMA, published 2016).
Where a chain is given by its changes, count along the chain named.

Assays:
recombinant human RANKL [1] = target: T1, recombinant human RANKL (human, UniProt O14788 136-317); assay: cell-based or functional assay
T1 sequence: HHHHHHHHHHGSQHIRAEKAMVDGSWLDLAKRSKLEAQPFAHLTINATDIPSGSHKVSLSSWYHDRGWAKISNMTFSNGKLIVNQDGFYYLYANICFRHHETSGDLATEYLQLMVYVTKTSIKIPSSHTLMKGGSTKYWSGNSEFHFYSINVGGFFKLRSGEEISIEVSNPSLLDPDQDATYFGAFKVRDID

recombinant human RANKL [2] = target: T1, recombinant human RANKL; assay: cell-based or functional assay; remark: listed apart in the source
recombinant human RANKL [3] = target: T1, recombinant human RANKL; assay: cell-based or functional assay; remark: listed apart in the source
recombinant human RANKL [4] = target: T1, recombinant human RANKL; assay: ELISA, scFv supernatant on coated hRANKL, anti-c-myc-HRP; threshold of the clones sent for sequencing
Procedure: The plates are washed three times with PBST (containing 0.05% Tween 20). The plates are closed with blocking solution (PBS solution containing 2% (WN) of BSA) for 1˜1.5 hours at room temperature. […] The closed microtiter plate is incubated for 2 hours at room temperature, washed three times with PBST. […] After the microtiter plate is washed six times with PBST, TMB substrate (purchased from Cell Signaling Technology, Cat. NO.7004) is added, and the samples are colored at room temperature for 10 minutes, 50 μl 2 M HCl is added in each well to terminate the color, and OD450 nm reading is detected using the M5 equipment.
If OD450>0.4, it is considered as a positive coloration.

recombinant human RANKL [5] = target: T1, recombinant human RANKL; assay: ELISA, scFv supernatant on coated hRANKL, anti-c-myc-HRP
Procedure: For VH, VL libraries, 5×96 clones selected randomly from SOBAG cloning plates obtained in the third round and the fourth round are vaccinated on 96-deep-well plates respectively, 400 μl 2×YT-AG medium is contained in each well, the bacterial liquid is cultivated with shaking, at 30° C., 200 rpm overnight. The next day, the bacterial liquid on the deep-well plate is transferred by 1:50 to a new 96-deep-well plate containing 400 μl 2×YT-AG fresh medium. The bacterial liquid is cultivated with shaking at 37° C., 200 rpm until OD600 is about 0.8 (for about 3 hours). The bacterial is collected through 1500 g centrifugation for 10 minutes, the supernatant is removed, and the bacterial is resuspended with 400 μl of sterile fresh 2×YT-AI (I refers to IPTG, with a final concentration of […]) culture medium, the suspension is cultivated with shaking at 30° C., 200 rpm overnight (that is, the expression of scFv is induced overnight). The expressed inductively scFv supernatant on the deep-well plate is centrifuged at 3000 g for 20 min, 300 μl supernatant is transferred to a clean 96-well cell plate for backup.
The plates are washed three times with PBST (containing 0.05% Tween 20). The plates are closed with blocking solution (PBS solution containing 2% (WN) of BSA) for 1˜1.5 hours at room temperature. […] The closed microtiter plate is incubated for 2 hours at room temperature, washed three times with PBST.

B1: 114-2.222 (antibody, V domains shown)
VH: EVQLQQSGAELVKPGASVKLSCTTSGFNIKATYIHWVQQRPEQGLEWIGRIDPANGNTKYDSKFQGKATITADTSSNTAYLQLSSLTSEDTAVYFCARSLHYYVFFDYWGQGTTLTVSS
VL: DIQMTQTTSSLSASLGDRVTISCSASQGISNYLNWYQQKPDGTVKLLIYSTSSLHSGVPSRFSGSGSGTDYSLTISSLEPEDIATYYCQQYSKLPLTFGAGTKLELKR
Recombinant human RANKL [1]
  EC50 value (ng/ml), inhibiting the cellular differentiation of RAW264.7 induced by human RANKL: 311 ng/mL

B2: G12 (antibody, human IgG2, kappa, V domains shown)
VH: QVQLVQSGAELKKPGASVKLSCKASGYTFTTYWLQWVRQAPGQGLEWMGAIYPGPGNTKYTQKFKDRFTITADTSKSTAYMQLNSLKSEDSAVYYCARRGSRRGIAYWGQGTLVTVSA
VL: NIVLTQSPASLSVSLGQRATISCRASESVDSYGRSFMHWYQQRPGQAPKLLIYLASNLESGVPARFSGSGSRTDFTLTISSVEAEDEATYYCQQDNEDPYTFGGGTKLEIKG
Recombinant human RANKL [2]
  IC50 (ng/ml) in RAW264.7 cells, osteoclast differentiation induced by RANKL: ~1060 ng/mL

B3: G4 (antibody, human IgG2, kappa, V domains shown)
VH: B2 VH with T74K
VL: B2 VL
Recombinant human RANKL [2]
  IC50 (ng/ml) in RAW264.7 cells, osteoclast differentiation induced by RANKL: ~1080 ng/mL

B4: G8 (antibody, human IgG2, kappa, V domains shown)
VH: B2 VH with K12V, K13Q, A40T, F68V, K76T, K87R
VL: B2 VL
Recombinant human RANKL [3]
  IC50 for inhibiting hRANKL induced RAW264.7 cell differentiation: 0.329 µg/mL
Recombinant human RANKL [2]
  IC50 (ng/ml) in RAW264.7 cells, osteoclast differentiation induced by RANKL: ~573 ng/mL

B5: G10 (antibody, human IgG2, kappa, V domains shown)
VH: B2 VH
VL: B2 VL with K49R
Recombinant human RANKL [2]
  IC50 (ng/ml) in RAW264.7 cells, osteoclast differentiation induced by RANKL: 695 ng/mL

B6: G15 (antibody, human IgG2, kappa, V domains shown)
VH: B2 VH with L11V, L20V, F68V, T74E, K76T, Q82E, N84S, K87R, S91T
VL: B2 VL with K49R
Recombinant human RANKL [3]
  IC50 for inhibiting hRANKL induced RAW264.7 cell differentiation: 0.257 µg/mL

B7: G14 (antibody, human IgG2, kappa, V domains shown)
VH: B2 VH with L11V, L20V, F68V, T74E, K76T, Q82E, N84S, K87R, S91T
VL: DIVMTQSPDSLAVSLGERATINCRASESVDSYGRSFMHWYQQKPGQAPRLLIYLASNLESGVPSRFSGSGSGTDFTLTINSLEAEDAATYYCQQDNEDPYTFGGGTKLEIKG
Recombinant human RANKL [3]
  IC50 for inhibiting hRANKL induced RAW264.7 cell differentiation: 0.247 µg/mL
Recombinant human RANKL [2]
  IC50 (ng/ml) in RAW264.7 cells, osteoclast differentiation induced by RANKL: ~517 ng/mL

B8: 114-7.19.12 (antibody, V domains shown)
VH: QVQLQQSGAELASPGASVKLSCKASGYTFTTYWLQWVKQRPGQGLEWIGAIYPGPGNTKYTQKFKDKATLTADKSASTAYMQLNSLTSEDSAVYYCARRGSRRGIAYWGQGTLVTVSA
VL: NIVLTQSPASLAVSLGQRATISCRASESVDSYGRSFMHWYQQRPGQPPTLLIYLASNLESGVPVRFSGSGSRTDFTLTIDPVEADDAATYYCQQDNEDPYTFGGGTKLEIK
Recombinant human RANKL [1]
  EC50 value (ng/ml), inhibiting the cellular differentiation of RAW264.7 induced by human RANKL: 267 ng/mL

B9: 114-7.37.26 (antibody, V domains shown)
VH: B8 VH with A24T, N84S
VL: B8 VL with V64A
Recombinant human RANKL [1]
  EC50 value (ng/ml), inhibiting the cellular differentiation of RAW264.7 induced by human RANKL: 470 ng/mL

B10: 114-7.38.48 (antibody, V domains shown)
VH: DVQLQESGPDLVKPSQSLSLTCTVTGYSITSAYSWHWIRQFPGNKLEWMGYIHFSGVTNYNPSLKSRISITRDASKNQFFLQLSSVTTEDTATYYCATRRETGFTYWGQGTLVTVSA
VL: DIVLTQSPATLSVTPGDSVSLSCRASQSISKNLHWYQQKSHESPRLLIKYASQSISGIPSRFSGSGSGTDFTLSINSVETEDFGIYFCQQINSWPLTFGAGTKLELK
Recombinant human RANKL [1]
  EC50 value (ng/ml), inhibiting the cellular differentiation of RAW264.7 induced by human RANKL: 585 ng/mL

B11: 114-6.6.29 (antibody, V domains shown)
VH: DVKLVESGGGLVKPGGSLKLSCAASGFTFSSYTMSWVRQTPEKRLEWVATISSGGSYTYYPDSVKGRFTISRDNAKNTLYLQMSSLKSEDTAMYYCTRDWDYYGTTYVGGYAMDYWGQGTSVTVSS
VL: DVLMTQTPLSLPVSLGDQASISCRSSQSIVHSNGNTYLEWYLQKPGQSPKLLIYKVSNRFSGVPDRFSGSGSGTDFTLKISRVEAEDLGVYYCFQGSHVPWTFGGGTKLEIK
Recombinant human RANKL [1]
  EC50 value (ng/ml), inhibiting the cellular differentiation of RAW264.7 induced by human RANKL: 799 ng/mL

B12: 114-5.7.14 (antibody, V domains shown)
VH: EVQLQQSGAELVKPGASVKLSCTASGFKIKDTYMHWVRQRPEQGLEWIGRIDSANGNIKYDPKFQGKATITADTSSKTAYLHLSSLTFEDTAVYYCSRPKSNYDFWLPYWGQGTLVTVSA
VL: DIQMTQTTSSLSASLGDRVTISCSASQGISNYLNWYQQKPDGTVKLLIYYTSSLHSGVPSRFSGSGSGTDYSLTISNLEPEDIATYYCQQYSKLPLTFGAGTKLELK
Recombinant human RANKL [1]
  EC50 value (ng/ml), inhibiting the cellular differentiation of RAW264.7 induced by human RANKL: 315 ng/mL

B13: 114-5.9.4 (antibody, V domains shown)
VH: EVQLQQSGAELVKPGASVKLSCTASGFNLKGTYIHWVKQRPGQGLEWIGRIDPANANTKYDPKFQGKATIRTDTSSNTAYLQLSSLTSEDTAVYFCSSPSGHYDVWFAYWGQGTLVTVSP
VL: B1 VL with T7P, R18T, G28D, V44L, S50Y, S77N, Y91F
Recombinant human RANKL [1]
  EC50 value (ng/ml), inhibiting the cellular differentiation of RAW264.7 induced by human RANKL: 340 ng/mL

B14: 114-2.402 (antibody, V domains shown)
VH: EVQLQQSGTELVKPGASVKLSCTLFGFNIKATYMHWVRQRPEQGLEWIGRIDPPNGNTKYDPKFQDKATIKVDTSSNTAYLQLSSLTSEDTAVYYCAREFNRYDVWLAYWGQGTLVTVSA
VL: B1 VL with I29V, S77N, I83V, L96F, A100S, L106I
Recombinant human RANKL [1]
  EC50 value (ng/ml), inhibiting the cellular differentiation of RAW264.7 induced by human RANKL: 396 ng/mL

B15: pFL249-H16u (scFv)
scFv: QVQLVQSGAELKKPGASVKLSCKASGYTFTTYWLQWVRQAPGQGLEWMGAIYPGPGNTKYTQKFKDRFTITADTSKSTAYMQLNSLKSEDSAVYYCARRGSRRGIAYWGQGTLVTVSAASSGGGGSGGGGSGGGGSSNIVLTQSPASLAVSLGQRATISCRASESVDSYGRSFMHWYQQRPGQPPTLLIYLASNLESGVPVRFSGSGSRTDFTLTIDPVEADDAATYYCQQDNEDPYTFGGGTKLEIK
notes: scFv in IPTG-induced E. coli supernatant, screened by ELISA; also called H16u scFv clone of the VH library; not shown: c-myc tag and his tag of vector pFL249
Recombinant human RANKL [4]
  OD450: 1.2

B16: pFL249-H16 (scFv)
scFv: B15 scFv with T74K
notes: scFv in IPTG-induced E. coli supernatant, screened by ELISA; also called H16 scFv clone of the VH library; not shown: c-myc tag and his tag of vector pFL249
Recombinant human RANKL [4]
  OD450: 1.2

B17: pFL249-H114 (scFv)
scFv: B15 scFv with K12V, K13Q, A40T, F68V, K76T, K87R
notes: scFv in IPTG-induced E. coli supernatant, screened by ELISA; also called H114 scFv clone of the VH library; not shown: c-myc tag and his tag of vector pFL249
Recombinant human RANKL [4]
  OD450: 1.2

B18: pFL249-L10u (scFv)
scFv: QVQLQQSGAELASPGASVKLSCKASGYTFTTYWLQWVKQRPGQGLEWIGAIYPGPGNTKYTQKFKDKATLTADKSASTAYMQLNSLTSEDSAVYYCARRGSRRGIAYWGQGTLVTVSAASSGGGGSGGGGSGGGGSSNIVLTQSPASLSVSLGQRATISCRASESVDSYGRSFMHWYQQRPGQAPKLLIYLASNLESGVPARFSGSGSRTDFTLTISSVEAEDEATYYCQQDNEDPYTFGGGTKLEIK
notes: scFv in IPTG-induced E. coli supernatant, screened by ELISA; also called L10u scFv clone of the VL library; not shown: c-myc tag and his tag of vector pFL249
Recombinant human RANKL [5]
  binding result: binds

B19: pFL249-L10 (scFv)
scFv: B18 scFv with K186R
notes: scFv in IPTG-induced E. coli supernatant, screened by ELISA; also called L10 scFv clone of the VL library; not shown: c-myc tag and his tag of vector pFL249
Recombinant human RANKL [5]
  binding result: binds

B20: pFL249-L37 (scFv)
scFv: B18 scFv with R180K, A201S, S218A, E224A
notes: scFv in IPTG-induced E. coli supernatant, screened by ELISA; also called L37 scFv clone of the VL library; not shown: c-myc tag and his tag of vector pFL249
Recombinant human RANKL [5]
  binding result: binds

B21: pFL249-L37u (scFv)
scFv: B18 scFv with R180K, A201S, S218R, E224A
notes: scFv in IPTG-induced E. coli supernatant, screened by ELISA; also called L37u scFv clone of the VL library; not shown: c-myc tag and his tag of vector pFL249
Recombinant human RANKL [5]
  binding result: binds
